{"source": "the DeepSol protein solubility set"}
{"experiment": "soluble on expression in E. coli; label from the status in PepcDB or PDB records"}
{"sequence": "MAHDLQKMMDGELVRLQLEIKKEQERRLAEKMIPVFGVWQSPINQYEFADPEQAISCAAGLLDKVLREVKDDLSKEGGLQGWNGNLLRIYVQHVNESDFAVLQPYLKDK", "soluble on expression in E. coli": "not soluble"}
{"sequence": "MGSDKIHHHHHHMVSRYLEHLEHTFSTRLFQRNTRKISLTPAGEKALLYCENILQQQQLLQELAAPEQHNGTIRFTCGLFLFELGVAECIRQFKRQHPHIQFDVYLTESTMDLIDAQVDLALRITQKVADGLIARPVCQIESVFCAHPDYLKQHSPLLHPRQLIQHECIAHHSQHQFWTLFDNEQQPQNYPLNVTFKSNDVNALYDMCLHAQGVAMLPTLLVEKDLKEKRLKALFKNFTAPELSLSVVYASRQHLPRITQEFIAFMIENLDFYLKPQN", "soluble on expression in E. coli": "not soluble"}
{"sequence": "MNQYPDFDQKLYDDLRRGKEYAFAAVFDRYHRLLYTIAYRFLKSEEEAEDAVQYLFMKLWEQRETFSFESGIRSLLFTILKNYILNELRHRNLVFEKLYEMAQQVNDEDEDAFLTRFEHGELRKSLRVAIDKLPPQKQKICLLKIEYGLSNQEIADRMGITVPTVKSHYTQAIKALRNAIESLIMWFPVIWIYLID", "soluble on expression in E. coli": "not soluble"}
{"sequence": "MSLEGRRICVDSCPITCITFCAAHTALGPHHGRSGCAVVIRSMDEKLKRVAHAVSDMGLMSKILGESGSSRNTEDYVELNANEFEMTGTELERQVRIARISDKQDVIDIKDAVYDGDVVVADITRHSTQDRTMEHISDELKQVANEVGGDIVQKDDDQLIITPAGVGIARERLGREGHHHHHH", "soluble on expression in E. coli": "soluble"}
{"sequence": "MWPDNRIARDAHYLYRYDRHGRLTEKTDLIPEGVIRTDDERTHRYHYDSQHRLVHYTRTQYAEPLVESRYLYDPLGRRVAKRVWRRERDLTGWMSLSRKPQVTWYGWDGDRLTTIQNDRTRIQTIYQPGSFTPLIRVETATGELAKTQRRSLADTLQQSGGEDGGSVVFPPVLVQMLDRLESEILADRVSEESRRWLASCGLTVEQMQNQMDPVYTPARKIHLYHCDHRGLPLALVSTEGATEWCAEYDEWGNLLNEENPHQLQQLIRLPGQQYDEESGLYYNRHRYYDPLQGRYITQDPIGLKGGWNFYQYPLNPVQYIDSMGLASKYGHLNNGGYGARPNKPPTPDPSKLPDIAKQLRLPYPIDQASSAPNVFKTFFRALSPYDYTLYCRKWVKPNLTCTPQDDSQYPGMDTKTASDYLPQTNWPTTQLPPGYTCAEPYLFPDINKPDGPATAGIDDLGEILAKMKQRTSRGIRKLEHHHHHH", "soluble on expression in E. coli": "not soluble"}
{"sequence": "MSLSGDLVSLKVVVFDIGNVLLRWDPRLLYRKIFSEENQMEWFLSQVCSEAFNRKLDGGAPFAAAIEALVAQFPDFSKEIRAYDERWLETTSGPIPETFAILEELVAEGVPLYAITNFSYEKFEVARCAFELFDRFDGIVVSGAEGVVKPEAPIYRLLLDRYGLDASDCLFIDDSAANVDGARAVGMQGYHYRDPISLRWKLTECGLLCRKSDLNDKGQVLEKREGHHHHHH", "soluble on expression in E. coli": "soluble"}
{"sequence": "MERCGWVSQDPLYIAYHDNEWGVPETDSKKLFEMICLEGQQAGLSWITVLKKRENYRACFHQFDPVKVAAMQEEDVERLVQDAGIIRHRGKIQAIIGNARAYLQMEQNGEPFVDFVWSFVNHQPQVTQATTLSEIPTSTSASDALSKALKKRGFKFVGTTICYSFMQACGLVNDHVVGCCCYPGNKPLEHHHHHH", "soluble on expression in E. coli": "soluble"}
{"sequence": "MSLTGQAEAPFIRHGYFKFADGVIVSVAEGTPSPEEIDRVEVIDGKGKWVMPGMINTHGHLGMSLLRGHSDDLPLQSWLTEKMWPFEGKMDREAVHHARQLAMAEMIKSGTTTFLEMYHLYMDDLAEAVVEQGPRAVLMRSMIGLCSESEQREKLKEAVTFATTWNGDGNGRITTMMAPHAPYTCPPSFIEMIVDEADRIDLPLHTHMAETQREVEEHRKTYGVHPLVHFEQLGFLKDRHWLLAHCVHLGEEELDILEQHPSVHVSHNPMSNLKLGSGIANVQSMLERGINICLGTDSVASNNHLDLVEEMRIAALLQKGAVLDPTAIPAETAIAMATKNGAKALRLPQVGTIEAGKRADFIMIDPQCLHLQPHEHVMSHLVYALKGADVQDVFVEGAPLMLNKELKTFDEEKLQFEANAHYQRICEKLKEGHHHHHH", "soluble on expression in E. coli": "not soluble"}
{"sequence": "MKTEHKQVVVVGAGPSGSTVSALLKSRGIDVVVIEKATFPRFSIGESLLPACMEVVELAGMTEAVKQHGFQFKDGAAFRRNGVYTHFDFTDKFTAGPGTTFQVQRASFDKVLADSAAEQGVDIRYQHELVSLAFEGKKSRLEVVGPDKQAYQIEADFVLDASGFGRVLPRLLDLEEPSCLPPRKAIFTHIEDHISPQEPEYDRNKILISVHPENHDVWYWLIPFSNGTCSFGVVGEPEFFEQYPEDKLAALQQLANEEPGLASLLRNAKYPNPVGELGGYSANVKRLATEHYALLGNAGEFLDPVFSSGVTIAMKSAQFAADCVVRQLNGEVVDWQEEYSERLMVGVNTFRTYVEGWYNGTLQDVIFYQAPNPRIKQMISAILAGYAWDTENPYVKQSEQRLSTLAELVRGEGFLEHHHHHH", "soluble on expression in E. coli": "soluble"}
{"sequence": "MVLPGNCSTSAALCMQFLTQLASVAIDQAYQPPQQPAYNPHEKLFVSYRSVPPPGSSPSSAAVPIRFSSYSSVGSNIRGLNSPTLHPGSIEPPLTPGNYRLYSMRFCPYAQRVLIYLAKKNIPVEVVNVNPDRSPNWYLPKSPIGRVPALEINGKVVWESNVIVEYLDELFPTNTILPRDAYEKAHQKILVERLSPIMNALFEFYGSSNNPQAQRQNDMNVHSALRNSENLLRDTFYGGRQPGYADYLMWPFLERLQLLTMSPNSQFRYFPGLHYPKIGAYIARMQNQPEVLGFCKHDFFLKKTGEKIW", "soluble on expression in E. coli": "not soluble"}
{"sequence": "METVTLSEARVYVGTYNKYNSGSLFGKWLDLSDYSDKDEFMEACRELHKDDQDPEFMFQDYENIPEALISESWLSDKFFELRDAIEKLSETQQEAFFVWCDHHNNDISEEDADDLISSFEDEYQGEYKDEEDYAYEIVEECYDLPEFAKTYFDYSAFARDLFMTDYWMDNGFVFRCA", "soluble on expression in E. coli": "not soluble"}
{"sequence": "MKWYTKYLQVYEKPFSEAPQEIVEEVRNKLKLLQSDNPLVTVSLIGYNEEKHLLASLWSLSEMKCKYPIEIIGTDNDSKDQTATIYEATGIPYVIEHQHSCGHARLCGLKRAKGKYHINIDSDTMYPPHYVETMVDALERPGIVAVSSLWSYIPDKEHSWVGLKIYEFIRDIHLWIQSIKRPELSVRGLVFAYRTDYARQVGIRTDIRRGEDGSLALRLKEYGNIYFIRKRKARAITGYGTISADGSLFNSFKVRAIYALKNIGRVFTRKKEYKDEDDNLIKS", "soluble on expression in E. coli": "not soluble"}
{"sequence": "MTTGNLQVAIYGFTARSRAFEPAGICYETRLIRDKLTLGHCTLPIYKNSPVAKPVTEQQRKKSSEEPAELRKDLFDADNEKYEKYLMKLDPNDCKNQDHYKVLGLSKLRWQATSDEIRFCYRQKVLKHHPDKKKHRGIVMEKEEYFTCITKAYEQVGMSDVKRQAFDSVDHKFNDIIPNEKSINHNNFYNELAPVFQLNSRWSNIKPVPELGKSDATREDVENFYDFWFNFQSWREFSYLDEEDKERGEDRYERREMEKQNKAERERRRKEEAKRIRKLVDIAYAKDPRIIKFKKEQQAKKDKAKEDKQRAIREKQEAIDREKREKEEAEAKQKEEADRKAKEEREREKKERDIAKKAMSQQRKRLKKLADEAGHWTENPRDKLTEMERIERICIGFTVDQLRELCEKVESLSIASEIQTALTDAEILKKEAAGAKVTITEDKNKENEKQADKETWTSEEIQLLVKASNTFPPGTVERWVQIADYINEHRKDSTGLPPKTEKQVIKQCKAVQTMNVKLPSTTQNQLGTALPDEDVWSATEQKTLEDAIKKHKSSDPERWEKISTEVGTKSKKACIRRFKYLVQMVKNKK", "soluble on expression in E. coli": "not soluble"}
{"sequence": "MGCLSYMVLSGDEALVVDPLRFIDVYEQVAQQEGVTITHIVDSHLHADHLSGGKALAERTGAAYYLMKSEGAVFDFEPLEQHETIDFENVHLEVLAVKTPGHTPGSVSFFVNGKWLFSGDTIFVGGLGRPDLGGKVAEWAEDLYHTVYEKVAAMADDVIVLPAHYANLDEEINAEGYVGDTLGRIRARNEMMQNKAKDEFIDLVIQGLEHHHHHH", "soluble on expression in E. coli": "not soluble"}
{"sequence": "MPEIRLRHVVSCSSQDSTHCAENLLKADTYRKWRAAKAGEKTISVVLQLEKEEQIHSVDIGNDGSAFVEVLVGSSAGGAGEQDYEVLLVTSSFMSPSESRSGSNPNRVRMFGPDKLVRAAAEKRWDRVKIVCSQPYSKDSPFGLSFVRFHSPPDKDEAEAPSQKVTVTKLGQFRVKEEDESANHHHHHH", "soluble on expression in E. coli": "soluble"}
{"sequence": "MGSDKIHHHHHHMMSKYPLLGMTLIELQSLVKRLGMPGFAAKQIASWLYDKKVTSIDEMTNLSLKYRELLKQNYEVGAEAPVEEMRSVDGTVKYLYPVGENHFVESVYIPDDERATLCISSQVGCKMNCKFCMTGKQGYSANLTAHQIINQIHSLPERDKLTNVVMMGMGEPLDNLEEVLKALDILTGSYGYAWSPKRITVSTVGLRKGLRRFIEESDCHLAISLHSPVTAQRAELMPAEKAFSITEMVELLKNYDFSKQRRLSFEYIVFKGLNDSQVYAKELLKLLRGLDCRMNLIRFHSIPGVALEGADMDTMTRFRDYLTTHGLFTTIRASRGEDIFAACGMLSTAKQEENNKS", "soluble on expression in E. coli": "not soluble"}
{"sequence": "MKLNLITVSLATLVAAGAFPAHAGPQAHVVCGYHHTLGDDAIMMFGKANQAMWHDFFGNTHTDAVSTYQTLRAQPDTTCDNKADSSAYWAPSMKLPDGEIVNPAYQKTYYQSTNVAQYPLHPFPAGLELLAGDHHGTGPSSAITFLCANGKGYTNKVGEICGLRKAGDAVQFNIGIAFPNCWDGVNLKPTHSHNNAIYADHGKCSADYPVKIPTVNMNIAWVLPQISSLDTSKVELSMDPVMHGETREERWGSLYTAHADFMNGWTEDGAQFMTDLCMNQGLDCGTTVPYAYSKAEENTWVSSEDDKPHASVDTLYVQDDWTNGGRTQHPETLTLVKFKIPPLPANMDASLFKYRIRLFGGKTEANGADQIFFYPTSSDWHVSTVSWNNKPAINYRSDAVLYLDHSHEYRMVDVDKAVRKALAEGKTEISWYIGGDRQGNHYDFTPADSKQSLVLMLTGFKKTPELLEHHHHHH", "soluble on expression in E. coli": "not soluble"}
{"sequence": "MSDEKKGGETEHINLKVLGQDNAVVQFKIKKHTPLRKLMNAYCDRAGLSMQVVRFRFDGQPINENDTPTSLEMEEGDTIEVYQQQTGG", "soluble on expression in E. coli": "soluble"}
{"sequence": "MNRYPGIPRNEWSAGWKRTACIVKAEDGSWGFGFTLHSGVTERIINDHLSKILIGRNCMSTEMLWDVMQQSTISYGTSGLSSFAISAVDNAIWDLKGKILDRPVYELIGGPQKDKIFCYASNTSFEYGTKNSIEWFLELGFKAVKLFLREGPESNLEGINRAEQLVASTREQVGKDVEIAVDAWMSLNNEYAVRLAEVLKPYRIKWLEDYLNPENLDGYQNLRNRIPWQTLATGEHWYSLYPFALAASKGIVDIFQPDLNWVGGITAGIKICHLAEAHGLSVIPHASTNYPYGQHLAFSMPSVPWAERSEGVSPPGVPLEEMVLLPGTPVIKDGYIIPSDAPGFGLEITEDWLRDRAV", "soluble on expression in E. coli": "soluble"}
{"sequence": "MGCYHPLSGTDGTLMRHTLPIAPQFYVTAPQPCPYLAGRMERKLFTALQGEGAERLNNALSQQGFRRSQNVLYRPSCADCAACLSARIDVSAFRASRSQKRAMRRNAHLTRRATSPWATDEQYELFRRYLDSRHADGGMADMDVFEFAAMIEETPIRSRVIEYAHRDTRALIGVSLTDVLDDGLSMVYSFYDPDLHRDSLGTHMILDHIAIAREAGLPYVYLGYWVPGSPKMGYKSRFSGLEIYLGGRWQAMTDPEAHDAIRHPLSTDPIAEQVANIQLPDRWPTGDLEHHHHHH", "soluble on expression in E. coli": "not soluble"}
{"sequence": "RFEPSFLDKLFDDEPHVPAPAAMRQLSLEELKNTVARDVEAILNTRIALTEEDLAALPECQRSVLTYGLNDFAGLSLASHYDRTFICKSIQQAIARHEPRLQQVQVTFELNEQSTNALYFAIQALLVVHPAEEPVTFDAMLQPS", "soluble on expression in E. coli": "not soluble"}
{"sequence": "MTALISISLLLVTFAGAAEMCAPVTQHSTPQSDVPSTVTITFHKLETSTTTKDEILNAIRTSHPDVHATGEPIDKKSIKVTLTAVSCVTAMKLAEEVLNAGTPVVLNAYAMLCDGEISTNIKP", "soluble on expression in E. coli": "soluble"}
